Assay results taken from patent US20080057063A1.

Molecular target: cynomolgus αV (HEK-293 cells transfected with cynomolgus αV alone) (cynomolgus)
Assay: FACS, HEK-293 transfected with cynomolgus αV

Chain of cynomolgus αV (HEK-293 cells transfected with cynomolgus αV alone) (cynomolgus) (chain, as listed by the source): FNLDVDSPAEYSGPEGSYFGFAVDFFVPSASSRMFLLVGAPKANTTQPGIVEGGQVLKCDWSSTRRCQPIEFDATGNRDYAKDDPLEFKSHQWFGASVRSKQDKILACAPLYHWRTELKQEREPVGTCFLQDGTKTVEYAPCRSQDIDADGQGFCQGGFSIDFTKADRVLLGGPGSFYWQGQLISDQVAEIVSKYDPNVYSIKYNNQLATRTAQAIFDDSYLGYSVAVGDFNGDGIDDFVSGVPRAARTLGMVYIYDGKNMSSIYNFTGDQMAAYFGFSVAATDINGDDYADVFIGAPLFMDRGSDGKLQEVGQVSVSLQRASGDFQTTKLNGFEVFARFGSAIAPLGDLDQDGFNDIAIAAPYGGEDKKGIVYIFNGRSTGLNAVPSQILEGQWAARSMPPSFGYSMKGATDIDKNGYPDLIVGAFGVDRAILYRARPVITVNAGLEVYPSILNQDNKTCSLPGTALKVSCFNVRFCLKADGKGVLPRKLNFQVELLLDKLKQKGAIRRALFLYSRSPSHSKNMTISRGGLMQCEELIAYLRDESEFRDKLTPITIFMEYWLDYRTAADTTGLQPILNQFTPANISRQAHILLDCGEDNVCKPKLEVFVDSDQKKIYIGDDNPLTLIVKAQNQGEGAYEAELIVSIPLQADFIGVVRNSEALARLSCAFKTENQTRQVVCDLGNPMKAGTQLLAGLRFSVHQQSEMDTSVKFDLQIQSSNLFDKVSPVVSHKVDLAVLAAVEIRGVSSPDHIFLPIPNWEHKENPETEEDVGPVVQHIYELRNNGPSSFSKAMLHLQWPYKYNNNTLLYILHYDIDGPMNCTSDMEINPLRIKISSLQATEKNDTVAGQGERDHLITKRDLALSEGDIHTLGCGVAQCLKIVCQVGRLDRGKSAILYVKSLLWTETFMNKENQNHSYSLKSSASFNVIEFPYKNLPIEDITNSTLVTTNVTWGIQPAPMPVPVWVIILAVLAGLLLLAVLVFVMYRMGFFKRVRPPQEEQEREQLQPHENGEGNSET

B1: sc 133 (antibody, V domains shown)
VH: QVQLVQSGAEVKKPGASVKVSCKASGYTFTGYYMHWVRQAPGQGLEWMGWINPKSGDTNYAQKFQGRVTLTRDTSTSTAYMELSRLRSDDTAVYYCARRLDVWGQGTTVTVSS
VL: QSVLTQPPSVSAAPGQKVTISCSGSSSNIGNNYVSWYQQLPGTAPKLLIYDNNKRPSGIPDRFSGSKSGTSATLGITGLQTGDEADYYCGTWNSSLSAGYVFGTGTKVTV
  percent of cells shifted: 5%
